Reference: patent US7708999B2, “Remedies for arthritis” (Kyowa Hakko Kirin Co., Ltd., priority 2001, dated 2010)

Experiments:
[1] = system: rat adjuvant arthritis model; test: Rat adjuvant arthritis model; type: in vivo
Method: The rat adjuvant arthritis model was performed in the following manner according to the method of Pearson et al. (Pearson CM. et al., Arthritis Rheum., 5, 654-658, 1962) using Lewis rats (female, 8 weeks old, Japan Charles River).
Mycobacterium butyricum (manufactured by Difco) was suspended in a liquid paraffin (manufactured by Wako Pure Chemical Industries, Ltd.) to a final concentration of 6 mg/mL, and sterilized with a autoclave. The resulting solution was intradermally injected into the rat right hind pad in an amount of 100 μL for sensitization. One group consisted of 8 to 10 rats. Anti-FGF-8 neutralizing antibody KM1334 was dissolved in saline to a final concentration of 2 mg/mL. The solution was intraperitoneally administered to a KM1334 administrated group once a day at a dose of 0.5 mL per 100 g of the body weight for each rat on the sensitization day of the rat adjuvant arthritis model and on days 3, 7, 10, 14 and 17 from the sensitization. To saline administrated group, only saline was intraperitoneally administered instead of the anti-FGF-8 neutralizing antibody KM1334 solution. Further, sodium diclofenac, an antiinflammatory agent, was dissolved in a 0.5 w/v % methyl cellulose solution to a final concentration of 0.3 mg/mL, and the solution was orally administered to a sodium diclofenac administrated group as a positive control once a day at a dose of 1 mL per 100 g of the body weight on days 4, 7 to 11 and 14 to 18 from the adjuvant sensitization day. 50 mg of methotrexate® for injection (manufactured by Wyeth Japan) as a metabolic antagonist was dissolved in a 0.5 w/v % methyl cellulose solution to a final concentration of 0.01 mg/mL, and the solution was administered to a methotrexate administrated group in the same manner as in the sodium diclofenac administrated group. Prednisolone (manufactured by Sigma-Aldrich), a steroidal agent, was suspended in a 0.5 w/v % methyl cellulose solution to a final concentration of 0.3 mg/mL, and the suspension was administered to a prednisolone administrated group in the same manner as in the sodium diclofenac administrated group. Further, a 0.5 w/v % methyl cellulose solution alone was orally administered to a solvent administrated group in the same manner. An untreated group was used, and it was not subjected to sensitization with Mycobacterium butyricum and administration of an agent. The volumes of the adjuvant-treated paw and the adjuvant-untreated paw were measured as time goes by using a device for measuring edemas of rat hind paw (TK-101, manufactured by Unicom).
Using urine collected for 24 hours at day 20 and day 21 after the sensitization, the amounts of glycosaminoglycan, deoxypyridinoline, hydroxyproline and creatinine in urine were measured. The amount of glycosaminoglycan in urine was measured by the DMMB method described in Example 1. The amount of hydroxyproline in urine was measured by the method of Ikeda et al. (Ikeda Shingo et al., Tokyo Eiken Nenpo, 36 277-282, 1985). That is, 0.8 mL of hydrochloric acid for amino acid analysis (manufactured by Kanto Kagaku) was added to 0.8 mL of urine to hydrolyze at 110° C. for 15 hours. To 0.5 mL of the hydrolyzed sample was added 2 mL of a 1.2 mol/L sodium hydroxide solution for neutralization. 1 mL of isopropanol was added to 0.5 mL of the neutralized sample, and 1 ml of an oxidant solution was added. The mixture was stirred well, and allowed to stand at room temperature for 5 minutes. […]

[2] = system: rat monoiodoacetic acid-induced osteoarthritis model; test: Rat monoiodoacetic acid-induced osteoarthritis model; type: in vivo; settings: 4 mg/mL, 0.5 mL per 100 g intraperitoneally once; 3 days after monoiodoacetic acid
Method: The rat monoiodoacetic acid-induced osteoarthritis model was produced in the following manner by the method of Guingamp et al. (Guingamp C. et al., Arthritis Rheum., 40, 1670-1679, 1997) using Sprague-Dawley rats (male, 7 weeks old, Japan Charles River).
Monoiodoacetic acid (manufactured by Sigma-Aldrich) prepared with saline to a final concentration of 10 mg/mL was injected into the right knee joint of the rat in an amount of 25 μL. One group consisted of 10 rats. Anti-FGF-8 neutralizing antibody KM1334 was dissolved in saline (manufactured by Otsuka Seiyaku Kojo) to a final concentration of 4 mg/mL, and the antibody solution at a dose of 0.5 mL per 100 g of the body weight was intraperitoneally administered to a KM1334 administrated group once at the injection of monoiodoacetic acid. To saline group, the saline alone was intraperitoneally administered instead of the antibody solution. Further, a sham operated group was arranged, and the saline was injected in the knee joint thereof without the administration of the agent. After 3 days from the injection of monoiodoacetic acid, the joint washing liquid was recovered by the method described in Example 6. The amount of glycosaminoglycan in the joint lavage fluid was measured by the DMMB method described in Example 1.

[3] = adjuvant-untreated paw, score 0 to 4, mean ± standard error
[4] = urine day 20 to 21, KM1334 intraperitoneally, vs saline group

B1: KM1334: anti-FGF-8 neutralizing monoclonal antibody produced by hybridoma KM1334 (FERM BP-5451), mouse IgG1 subclass (antibody, V domains shown)
VH: QVQLQQSGAEVARPGASVKLSCKASGYTFTDYYLNWVKQRSGQGLEWIGEIDPGSDSIYYNENLEGRATLTADKSSSTAYMQLNSLTSEDSAVYFCARYGYSRYDVRFVYWGQGTLVTVST
VL: DVLMTQTPLSLPVSLGDQASISCRSSQSLVHSNGRTYLEWYLQKPGQSPKVLIYKVSNRISGVPDRFSGSGSGTDFTLKISRVEAEDLGVYFCFQGSHVPYTFGGGTKLEIK
**Q.** What does the source list for B1?
**A.** Bone destruction score ([1]; Table 1, soft X-ray of calcaneus, adjuvant-untreated paw, day 21, maximum 5, mean ± standard error): 3.2 ± 0.5; Bone destruction score (% inhibition) ([1]; Table 1, vs saline group, not significant): 27%; Pathological score: Blood cell plasma leak to articular cavity [1, 3]: 1.6 ± 0.3; Pathological score: Blood leak around joint [1, 3]: 2.0 ± 0.4; inhibition of the increase in paw volume, adjuvant-untreated paw ([1]; day 21, 2 mg/mL, 0.5 mL per 100 g intraperitoneally, vs saline group): 69%; decrease of the increase in amount of hydroxyproline in urine ([1]; urine day 20 to 21, KM1334 intraperitoneally, not significant): 48%; inhibition of the increase in amount of deoxypyridinoline in urine (deoxypyridinoline/creatinine ratio) [1, 4]: 41%; inhibition of the increase in amount of glycosaminoglycan in urine (glycosaminoglycan/creatinine ratio) [1, 4]: 73%; Blood cell plasma leak to articular cavity (Percent inhibition) ([1]; vs saline group): 41%; Blood leak around joint (Percent inhibition) ([1]; vs saline group): 41%; inhibition of the increase in concentration of glycosaminoglycan in the joint lavage fluid [2]: 42%
